The results in this text go back to patent publication US20260234211A1 (GUANGDONG RAYNOVENT BIOTECH, published 2026).

Bridge positions count the residues as written; N and C are the ends. Square brackets hold non-standard residues; d marks the D form. Ends that are not written are not given here. Aib = CC(C)(N)C(=O)O

Assay in all cases: cell-based or functional assay
The target in one assay is GLP-1 receptor (GLP-1R).
For a further assay, the target named is T1, GIP receptor (GIPR).
T1 sequence (P48546 whole entry, species assumed, looked up): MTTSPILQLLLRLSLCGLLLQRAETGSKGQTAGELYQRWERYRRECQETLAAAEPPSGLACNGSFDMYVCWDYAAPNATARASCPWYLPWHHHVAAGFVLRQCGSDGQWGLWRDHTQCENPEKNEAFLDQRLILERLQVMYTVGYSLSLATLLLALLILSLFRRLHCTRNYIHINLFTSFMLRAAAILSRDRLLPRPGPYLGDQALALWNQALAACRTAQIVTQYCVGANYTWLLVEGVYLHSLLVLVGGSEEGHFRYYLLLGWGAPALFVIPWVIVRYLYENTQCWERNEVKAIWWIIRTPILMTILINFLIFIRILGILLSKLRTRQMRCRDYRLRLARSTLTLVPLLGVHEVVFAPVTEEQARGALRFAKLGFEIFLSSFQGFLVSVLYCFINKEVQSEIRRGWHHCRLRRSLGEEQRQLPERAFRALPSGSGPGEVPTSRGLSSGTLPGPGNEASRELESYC

The target of another assay is GCG receptor (GCGR).

B1: Example 4 (peptide)
peptide: H[Aib]HGTFTSDYSIYLEKKYA[Aib]EFVKWLLKGGPSSGAPPPS-NH2
modifications: bridge 24-28; not fully specified (residues 24, 28, bridges); also: staple structure only in drawing
For the molecule B1, the “GLP-1 EC50 (nM), cAMP assay on HEK293 cells with GLP-1R” value in the assay with GLP-1 receptor (GLP-1R) was found to be 0.023 nM. For the same molecule, the “GIP-1 EC50 (nM), cAMP assay on CHO cells with GIPR” value with GIP receptor (GIPR) stood at 0.016 nM. For the same molecule, the “GCG EC50 (nM), cAMP assay on HEK293 cells with GCGR” value with GCG receptor (GCGR) amounted to 0.143 nM.

B2: Example 5 (peptide)
peptide: H[Aib]HGTFTSDYSIYLEKKYA[Aib]KFVQWLLEGGPSSGAPPPS-NH2
modifications: bridge 17-21; not fully specified (residues 17, 21, bridges); also: staple structure only in drawing
In the case of B2, the “GLP-1 EC50 (nM), cAMP assay on HEK293 cells with GLP-1R” value with GLP-1 receptor (GLP-1R) came to 0.029 nM. Moreover, in the assay with GIP receptor (GIPR), the “GIP-1 EC50 (nM), cAMP assay on CHO cells with GIPR” value was found to be 0.007 nM. Further, the “GCG EC50 (nM), cAMP assay on HEK293 cells with GCGR” value with GCG receptor (GCGR) was 0.012 nM.
